According to patent US9657092B2, “S100A4 antibodies and therapeutic uses thereof” (LYKERA BIOMED SA, priority 2010, dated 2017):

Assays:
[1] = tested on: circulant S100A4 protein in plasma; experiment: Plasma quantification of S100A4 by sandwich ELISA in xenograft tumor models; assay type: in vivo, athymic mice; conditions: MiaPACA-2 and HCT116 xenograft tumor model, end of experiment
Description: Plasma levels of S100A4 were quantified by sandwich ELISA method. […] After removing the coating, plates were washed twice with PBS and incubated 1 h at 37° C. in blocking buffer (PBS containing 1% of skimmed milk).
Plasma samples diluted 1:4 in dilution buffer (PBS-4% BSA) were applied to the wells (100 μl/well) and were incubated 2 h at 37° C. Plates were washed eight times with washing buffer (PBS-0.1% of Tween-20) and Rabbit polyclonal anti-S100A4 secondary antibody (Dako) at the appropriate dilution was applied to the wells (100 μl/well) and were incubated for 1 h at 37° C.
Plates were washed eight times with washing buffer and Goat anti-Rabbit-IgG-peroxidase conjugated (Sigma) at the appropriate dilution was added to each well (100 μl/well) and were incubated 1 h at 37° C. […] Absorbance was ridden at 450 nm.
Standard curve for basal plasma samples (animals without tumor), was obtained by serial dilutions of murine recombinant S100A4 in dilution buffer. Standard curve for final plasma samples (animals with tumor at the end of the experiment) was obtained by serial dilutions of human recombinant S100A4 in dilution buffer.

[2] = tested on: HCT116 tumors; experiment: HCT116 subcutaneous xenograft tumor development; assay type: in vivo, nude mice; conditions: HCT116, end of experiment (day 21)
Description: (§1) MiaPACA-2 human pancreatic adenocarcinoma cell line and HCT116 human colorectal adenocarcinoma cell line in exponential growth were harvested with trypsin-EDTA (0.05%/0.02%) (Invitrogen), washed, and examined for viability by trypan blue dye exclusion. Viability was greater than 95%. For primary tumor growth, cells (either 5×10^6 or 1×10^6 cells for MiaPACA-2 or HCT116 respectively in 0.1 mL DMEM high glucose) were subcutaneously injected into the flanks of nude mice. Tumor volumes between 65-160 mm^3 for MiaPACA-2 and volumes between 155-370 mm^3 for HCT116 were used to divide the mice into two groups of either ten mice each (MiaPACA-2) or seven mice each (HCT116), such that the mean tumor size was equal between groups (approximately 100 mm^3 for MiaPACA-2 or 220 mm^3 for HCT116). Tumor growth was followed by measuring tumor diameters with calipers and the tumor volume was calculated using an approximated formula for a prolate ellipsoid: volume=(D×d^2)/2 where D is the longest axis of the tumor and d the shortest. Mice were treated either with vehicle (PBS) or with the antibody, i.p. three times per week at 25 mg/Kg/100 μL of sterile PBS, starting the treatment at defined tumor volume (100 mm^3 and 220 mm^3). […]

[3] = tested on: MiaPACA-2 tumors; experiment: MiaPACA-2 subcutaneous xenograft tumor development; assay type: in vivo, nude mice; conditions: MiaPACA-2, end of experiment (day 30)
Description: as §1

[4] = biological target: T1, Human S100A2 (Homo sapiens, UniProt P29034); experiment: ELISA specificity (reaction pattern of mAb); assay type: binding; set-up: key: ++++ positive reaction; − no reaction
T1 construct: purchased Abnova
T1 sequence (P29034 whole entry): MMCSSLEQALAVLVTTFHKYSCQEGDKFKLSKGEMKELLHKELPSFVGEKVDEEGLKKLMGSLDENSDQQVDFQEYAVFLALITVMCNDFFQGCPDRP

[5] = tested on: HUVECs migration induced by VEGF plus S100A4; experiment: HUVECs Transwell migration assay; assay type: cell-based, human
Description: Twenty-four-well cell culture plates with light-opaque PET membrane filter inserts with 8 μm-pores (Transwell HTS FluoroBlok™ Multiwell Insert Systems from Becton Dickinson) were used to test the migratory activity. The upper and lower surfaces of the Transwell membranes were coated for 2 hours at 37° C. with 15 μg/mL of Type I Collagen (Upstate). Endothelial cells (5×10^4 HUVEC's) suspended in 100 μl of EBM in the absence of serum or other supplements were seeded, after the collagen coating, onto the upper side of each Transwell chamber and incubated for 4 hours at 37° C. Then, S100A4 (1 μM), alone or in combination with VEGF (3 ng/mL) in EBM were added to the lower compartment of the 24-well plates to test their chemotactic capacity. […] Other monoclonal antibody anti-S100A4 called 5H4 (Leitat Biomed Division) was used to compare the activity. After 24 hours at 37° C., cells that had migrated to the lower side of the transwell were incubated with 5 μM Calcein-AM (Calbiochem) for 25-30 minutes at 37° C. Migrated cells were counted under a light microscope at a magnification of ×10. Comparisons between groups were made using the two-tailed nonparametric Mann Whitney U test. Differences for which P value was less than 0.05 were considered statistically significant.

[6] = biological target: T2, murine S100A4 (Mus musculus, UniProt P07091); experiment: Western-blot of NIH-3T3 mouse fibroblast extract; assay type: binding
T2 construct: total extracts from tumor cell lines of different origins and the mouse embryonic fibroblast cell line NIH3T3; endogenous in cells; host or cells: NIH-3T3 mouse fibroblasts
T2 sequence (P07091 whole entry): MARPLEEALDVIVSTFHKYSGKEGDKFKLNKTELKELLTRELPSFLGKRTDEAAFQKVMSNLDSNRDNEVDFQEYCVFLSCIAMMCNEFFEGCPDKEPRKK
Description: Cell and tumors samples were rinsed twice with PBS and immediately lysed with ice cold Cell Lysis Buffer (150 mM NaCl, 1% IGEPAL CA630, 5 mM EDTA, 100 μg/mL PMSF, 1 mM Na3VO4, 1 mM NaF and 50 mM Tris pH 7.4). Lysates were cleared by centrifugation and the protein concentration was quantified with the Bradford reagent (Bio-Rad). Total extracts (50 μg) were resolved in a 12% SDS-polyacrilamide gel (PAGE) electrophoresis under reduced conditions and transferred to BioTrace™ PVDF membranes (PALL corporation). Membranes were blocked for 1 hour in TBS plus 0.1% Tween-20 with 5% skimmed dried milk, incubated overnight with the relevant primary antibody and then with the secondary antibodies for 1 hour in blocking buffer, washing three times for 10 min in TBS plus 0.1% Tween-20 after each incubation. Signals were developed using the ECL™ Western Blotting Detection Reagents (Amersham) and exposed to Hyperfilm™ ECL (Amersham).

[7] = VEGF 3 ng/mL plus S100A4 1 μM, 24 h

B1: 5C3: mouse monoclonal anti-S100A4 antibody, IgG1, from hybridoma ECACC 10022401; VL SEQ ID NO: 1, VH SEQ ID NO: 2 (antibody, V domains shown)
VH: EAQLQQSGAELVKPGASVKLSCTASGFNIQETYMHWVKQRPEQGLEWIGRIDPANGNTKDDPKFQGKASITVDTSSNTAYLQLSSLTSEDTAVYYCASSYAMDYWGQGTSVTVSS
VL: DVLMTQTPLSLPVSLGDQASISCRSSQSIVHSNGNTYLEWYLQKTGQSPELLIYKVSNRLSGVPDRFSGSGSGTDFTLKISRVEAEDLGVYYCFQGSHVPFTFGSGTKLEIK
modifications: VH region of the 5C3 monoclonal antibody; VL region of the 5C3 monoclonal antibody
- S100A4 protein levels in plasma of treated animals (unbound to 5C3) [1]: blocks the totality of circulant S100A4 protein in plasma
- tumor weight compared with the control group [2]: induced a decrease in tumor weight
- tumor weight compared with the control group [3]: statistically significant decrease
- Reaction Pattern of mAb in ELISA, Human S100A2 [4]: −
- concentration that abolished the synergistic effect of VEGF plus S100A4 on HUVECs migration [5, 7]: 250 nM
- neutralizing activity on HUVECs migration induced by S100A4 [5, 7]: in vitro neutralizing activity
- migration induced by VEGF alone ([5]; VEGF alone): did not affect
- reaction with murine S100A4 in Western-blot [6]: also with murine S100A4
